According to US20240261333A1 (published 2024):

Assays:
[1] = molecular target: T1, PRDX1 (human, UniProt Q06830 2-199); assay: co-IP/MS, anti-FLAG IP of N-FLAG B3GNT2 cell lysate
T1 construct: also called NP_859048.1
T1 sequence (looked up): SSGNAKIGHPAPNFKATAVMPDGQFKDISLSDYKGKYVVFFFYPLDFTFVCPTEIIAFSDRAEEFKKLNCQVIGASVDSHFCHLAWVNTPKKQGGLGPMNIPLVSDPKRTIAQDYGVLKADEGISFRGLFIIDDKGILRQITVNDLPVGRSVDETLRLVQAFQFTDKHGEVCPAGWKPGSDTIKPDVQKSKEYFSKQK
Description: (§1) Cells were plated in 10-cm cell culture dishes and grown to 60-80% confluency. For each condition, two biological replicates were harvested for co-IP. Cells were washed with PBS and 4 mL of lysis buffer (20 mM HEPES, 1% Triton X-100, 150 mM NaCl, 1 mM EDTA, and 10% glycerol) containing protease inhibitor cocktail was added. Cells were scraped and lysate was incubated at 4° C. under rotary agitation for 1 h. Lysate was centrifuged at 14,000×g for 10 min at 4° C. Supernatant was transferred to a new tube and an aliquot was taken as the input. […] For Western blots, 10 μg/mL Chicken Anti-FLAG (Aves labs ET-DY100) and IgY control (R&D Systems AB-101-C) antibodies were biotinylated (Thermo Fisher Scientific 90407) and added to the respective conditions. Lysates with antibodies were incubated at 4° C. under rotary agitation overnight. For each mL of lysate, 50 μL of Pierce Protein A/G Magnetic Beads (Mass spectrometry; Thermo Fisher Scientific 88803) or Pierce Streptavidin Magnetic Beads (Western blot; Thermo Fisher Scientific 88817) was washed twice with lysis buffer. Lysates with antibodies were added to the beads and incubated at 4° C. under rotary agitation for 4 h. Beads were washed with lysis buffer 3 times and resuspended in lysis buffer for storage.
(§2) Magnetic beads were resuspended in 100 mM Tris pH 7.8, reduced, alkylated and digested with trypsin at 37° ° C. overnight. This solution was subjected to solid phase extraction to concentrate the peptides and remove unwanted reagents followed by injection onto a Shimadzu HPLC with fraction collector. Eight fractions were collected and after concentration were injected on a Waters NanoAcquity HPLC equipped with a self-packed Aeris 3 μm C18 analytical column 0.075 mm by 20 cm, (Phenomenex). Peptides were eluted using standard reverse-phase gradients. The effluent from the column was analyzed using a Thermo Orbitrap Elite mass spectrometer (nanospray configuration) operated in a data dependent manner for 54 minutes. The resulting fragmentation spectra were correlated against the known database using Proteome Discover 1.4 (Thermo Fisher Scientific).

[2] = molecular target: RPL30 (human, UniProt P62888 1-115); assay: as above
Description: as §1, §2

[3] = molecular target: RPS5 (human, UniProt P46782 1-204); assay: as above
Description: as §1, §2

[4] = molecular target: RPL14 (human, UniProt P50914 2-215); assay: as above
Description: as §1, §2

[5] = molecular target: RPS3A (human, UniProt P61247 2-264); assay: as above
Description: as §1, §2

[6] = molecular target: T2, PRDX2 (human, UniProt P32119 2-198); assay: as above
T2 construct: also called NP_005800.3
T2 sequence (looked up): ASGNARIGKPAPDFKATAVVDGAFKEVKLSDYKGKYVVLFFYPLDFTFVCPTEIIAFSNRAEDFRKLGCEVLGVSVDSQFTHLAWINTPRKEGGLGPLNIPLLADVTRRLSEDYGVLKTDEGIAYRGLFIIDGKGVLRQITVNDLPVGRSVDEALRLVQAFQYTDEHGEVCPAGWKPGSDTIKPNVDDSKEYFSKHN
Description: as §1, §2

[7] = molecular target: RPS15 (human, UniProt P62841 2-145); assay: as above
Description: as §1, §2

[8] = molecular target: RPL24 (human, UniProt P83731 1-157); assay: as above
Description: as §1, §2

[9] = molecular target: RPS9 (human, UniProt P46781 2-194); assay: as above
Description: as §1, §2

[10] = molecular target: T3, FKBP10 (human, UniProt Q96AY3 27-582); assay: as above
T3 construct: also called NP_068758.3 (+1)
Description: as §1, §2

[11] = molecular target: T4, ERP29 (human, UniProt P30040 33-261); assay: anti-FLAG co-IP from lysate of C-FLAG B3GNT2 cells, mass spectrometry
T4 construct: also called NP_006808.1
Description: as §1, §2

[12] = molecular target: T5, PSMB4 (human, UniProt P28070 46-264); assay: as above
T5 construct: also called NP_002787.2
Description: as §1, §2

[13] = molecular target: T6, PSMA5 (human, UniProt P28066 1-241); assay: as above
T6 construct: also called NP_002781.2
Description: as §1, §2

[14] = molecular target: T7, PSMC2 (human, UniProt P35998 2-433); assay: as above
T7 construct: also called NP_002794.1
T7 sequence (looked up): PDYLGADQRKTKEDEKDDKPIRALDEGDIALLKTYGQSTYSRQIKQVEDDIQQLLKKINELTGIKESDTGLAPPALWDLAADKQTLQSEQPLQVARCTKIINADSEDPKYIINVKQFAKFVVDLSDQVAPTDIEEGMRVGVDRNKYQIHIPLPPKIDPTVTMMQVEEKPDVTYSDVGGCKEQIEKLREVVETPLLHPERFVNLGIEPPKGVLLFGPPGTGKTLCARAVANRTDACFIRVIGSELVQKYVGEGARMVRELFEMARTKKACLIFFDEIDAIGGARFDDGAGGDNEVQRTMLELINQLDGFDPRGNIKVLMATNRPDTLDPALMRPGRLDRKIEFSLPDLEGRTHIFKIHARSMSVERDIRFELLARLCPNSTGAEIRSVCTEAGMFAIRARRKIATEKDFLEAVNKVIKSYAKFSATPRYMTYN
Description: as §1, §2

[15] = molecular target: T8, LRP1 (human, UniProt Q07954 20-4544, limits assumed); assay: co-IP/MS, anti-FLAG IP of C-FLAG B3GNT2 cell lysate
T8 construct: also called NP_002323.2 (+1)
Description: as §1, §2

[16] = molecular target: T9, PIP (human, UniProt P12273 29-146); assay: as above
T9 construct: also called NP_002643.1
T9 sequence (looked up): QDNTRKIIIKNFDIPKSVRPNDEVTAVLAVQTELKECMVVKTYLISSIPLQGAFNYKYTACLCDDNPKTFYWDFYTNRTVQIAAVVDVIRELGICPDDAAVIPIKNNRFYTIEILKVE
Description: as §1, §2

[17] = molecular target: T10, TGM3 (human, UniProt Q08188 2-693, limits assumed); assay: as above
T10 construct: also called NP_003236.3
T10 sequence (looked up): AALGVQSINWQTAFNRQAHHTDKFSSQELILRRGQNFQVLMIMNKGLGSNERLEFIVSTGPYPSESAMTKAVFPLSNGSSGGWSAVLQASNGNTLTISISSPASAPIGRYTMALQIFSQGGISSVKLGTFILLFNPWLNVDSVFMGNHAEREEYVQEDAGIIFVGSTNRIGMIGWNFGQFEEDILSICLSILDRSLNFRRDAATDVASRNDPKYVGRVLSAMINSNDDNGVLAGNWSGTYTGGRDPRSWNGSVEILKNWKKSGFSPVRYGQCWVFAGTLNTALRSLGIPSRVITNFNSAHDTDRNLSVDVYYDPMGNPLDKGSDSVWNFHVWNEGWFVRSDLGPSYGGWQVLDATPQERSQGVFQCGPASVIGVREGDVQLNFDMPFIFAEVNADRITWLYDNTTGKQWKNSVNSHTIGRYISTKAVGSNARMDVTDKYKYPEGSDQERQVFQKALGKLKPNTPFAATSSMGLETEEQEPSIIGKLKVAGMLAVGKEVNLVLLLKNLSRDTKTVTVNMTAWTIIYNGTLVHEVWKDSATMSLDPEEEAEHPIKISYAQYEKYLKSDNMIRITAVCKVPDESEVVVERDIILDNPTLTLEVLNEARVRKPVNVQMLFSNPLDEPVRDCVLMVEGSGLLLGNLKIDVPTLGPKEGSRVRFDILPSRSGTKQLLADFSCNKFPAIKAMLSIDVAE
Description: as §1, §2

[18] = molecular target: RPS12 (human, UniProt P25398 2-132); assay: as above
Description: as §1, §2

[19] = molecular target: CAPZA1 (human, UniProt P52907 2-286); assay: as above
Description: as §1, §2

[20] = molecular target: RPS7 (human, UniProt P62081 1-194); assay: as above
Description: as §1, §2

[21] = molecular target: T11, PCBP1 (human, UniProt Q15365 1-356); assay: as above
T11 construct: also called NP_006187.2
Description: as §1, §2

T8 sequence (Q07954 20-4544 limits assumed): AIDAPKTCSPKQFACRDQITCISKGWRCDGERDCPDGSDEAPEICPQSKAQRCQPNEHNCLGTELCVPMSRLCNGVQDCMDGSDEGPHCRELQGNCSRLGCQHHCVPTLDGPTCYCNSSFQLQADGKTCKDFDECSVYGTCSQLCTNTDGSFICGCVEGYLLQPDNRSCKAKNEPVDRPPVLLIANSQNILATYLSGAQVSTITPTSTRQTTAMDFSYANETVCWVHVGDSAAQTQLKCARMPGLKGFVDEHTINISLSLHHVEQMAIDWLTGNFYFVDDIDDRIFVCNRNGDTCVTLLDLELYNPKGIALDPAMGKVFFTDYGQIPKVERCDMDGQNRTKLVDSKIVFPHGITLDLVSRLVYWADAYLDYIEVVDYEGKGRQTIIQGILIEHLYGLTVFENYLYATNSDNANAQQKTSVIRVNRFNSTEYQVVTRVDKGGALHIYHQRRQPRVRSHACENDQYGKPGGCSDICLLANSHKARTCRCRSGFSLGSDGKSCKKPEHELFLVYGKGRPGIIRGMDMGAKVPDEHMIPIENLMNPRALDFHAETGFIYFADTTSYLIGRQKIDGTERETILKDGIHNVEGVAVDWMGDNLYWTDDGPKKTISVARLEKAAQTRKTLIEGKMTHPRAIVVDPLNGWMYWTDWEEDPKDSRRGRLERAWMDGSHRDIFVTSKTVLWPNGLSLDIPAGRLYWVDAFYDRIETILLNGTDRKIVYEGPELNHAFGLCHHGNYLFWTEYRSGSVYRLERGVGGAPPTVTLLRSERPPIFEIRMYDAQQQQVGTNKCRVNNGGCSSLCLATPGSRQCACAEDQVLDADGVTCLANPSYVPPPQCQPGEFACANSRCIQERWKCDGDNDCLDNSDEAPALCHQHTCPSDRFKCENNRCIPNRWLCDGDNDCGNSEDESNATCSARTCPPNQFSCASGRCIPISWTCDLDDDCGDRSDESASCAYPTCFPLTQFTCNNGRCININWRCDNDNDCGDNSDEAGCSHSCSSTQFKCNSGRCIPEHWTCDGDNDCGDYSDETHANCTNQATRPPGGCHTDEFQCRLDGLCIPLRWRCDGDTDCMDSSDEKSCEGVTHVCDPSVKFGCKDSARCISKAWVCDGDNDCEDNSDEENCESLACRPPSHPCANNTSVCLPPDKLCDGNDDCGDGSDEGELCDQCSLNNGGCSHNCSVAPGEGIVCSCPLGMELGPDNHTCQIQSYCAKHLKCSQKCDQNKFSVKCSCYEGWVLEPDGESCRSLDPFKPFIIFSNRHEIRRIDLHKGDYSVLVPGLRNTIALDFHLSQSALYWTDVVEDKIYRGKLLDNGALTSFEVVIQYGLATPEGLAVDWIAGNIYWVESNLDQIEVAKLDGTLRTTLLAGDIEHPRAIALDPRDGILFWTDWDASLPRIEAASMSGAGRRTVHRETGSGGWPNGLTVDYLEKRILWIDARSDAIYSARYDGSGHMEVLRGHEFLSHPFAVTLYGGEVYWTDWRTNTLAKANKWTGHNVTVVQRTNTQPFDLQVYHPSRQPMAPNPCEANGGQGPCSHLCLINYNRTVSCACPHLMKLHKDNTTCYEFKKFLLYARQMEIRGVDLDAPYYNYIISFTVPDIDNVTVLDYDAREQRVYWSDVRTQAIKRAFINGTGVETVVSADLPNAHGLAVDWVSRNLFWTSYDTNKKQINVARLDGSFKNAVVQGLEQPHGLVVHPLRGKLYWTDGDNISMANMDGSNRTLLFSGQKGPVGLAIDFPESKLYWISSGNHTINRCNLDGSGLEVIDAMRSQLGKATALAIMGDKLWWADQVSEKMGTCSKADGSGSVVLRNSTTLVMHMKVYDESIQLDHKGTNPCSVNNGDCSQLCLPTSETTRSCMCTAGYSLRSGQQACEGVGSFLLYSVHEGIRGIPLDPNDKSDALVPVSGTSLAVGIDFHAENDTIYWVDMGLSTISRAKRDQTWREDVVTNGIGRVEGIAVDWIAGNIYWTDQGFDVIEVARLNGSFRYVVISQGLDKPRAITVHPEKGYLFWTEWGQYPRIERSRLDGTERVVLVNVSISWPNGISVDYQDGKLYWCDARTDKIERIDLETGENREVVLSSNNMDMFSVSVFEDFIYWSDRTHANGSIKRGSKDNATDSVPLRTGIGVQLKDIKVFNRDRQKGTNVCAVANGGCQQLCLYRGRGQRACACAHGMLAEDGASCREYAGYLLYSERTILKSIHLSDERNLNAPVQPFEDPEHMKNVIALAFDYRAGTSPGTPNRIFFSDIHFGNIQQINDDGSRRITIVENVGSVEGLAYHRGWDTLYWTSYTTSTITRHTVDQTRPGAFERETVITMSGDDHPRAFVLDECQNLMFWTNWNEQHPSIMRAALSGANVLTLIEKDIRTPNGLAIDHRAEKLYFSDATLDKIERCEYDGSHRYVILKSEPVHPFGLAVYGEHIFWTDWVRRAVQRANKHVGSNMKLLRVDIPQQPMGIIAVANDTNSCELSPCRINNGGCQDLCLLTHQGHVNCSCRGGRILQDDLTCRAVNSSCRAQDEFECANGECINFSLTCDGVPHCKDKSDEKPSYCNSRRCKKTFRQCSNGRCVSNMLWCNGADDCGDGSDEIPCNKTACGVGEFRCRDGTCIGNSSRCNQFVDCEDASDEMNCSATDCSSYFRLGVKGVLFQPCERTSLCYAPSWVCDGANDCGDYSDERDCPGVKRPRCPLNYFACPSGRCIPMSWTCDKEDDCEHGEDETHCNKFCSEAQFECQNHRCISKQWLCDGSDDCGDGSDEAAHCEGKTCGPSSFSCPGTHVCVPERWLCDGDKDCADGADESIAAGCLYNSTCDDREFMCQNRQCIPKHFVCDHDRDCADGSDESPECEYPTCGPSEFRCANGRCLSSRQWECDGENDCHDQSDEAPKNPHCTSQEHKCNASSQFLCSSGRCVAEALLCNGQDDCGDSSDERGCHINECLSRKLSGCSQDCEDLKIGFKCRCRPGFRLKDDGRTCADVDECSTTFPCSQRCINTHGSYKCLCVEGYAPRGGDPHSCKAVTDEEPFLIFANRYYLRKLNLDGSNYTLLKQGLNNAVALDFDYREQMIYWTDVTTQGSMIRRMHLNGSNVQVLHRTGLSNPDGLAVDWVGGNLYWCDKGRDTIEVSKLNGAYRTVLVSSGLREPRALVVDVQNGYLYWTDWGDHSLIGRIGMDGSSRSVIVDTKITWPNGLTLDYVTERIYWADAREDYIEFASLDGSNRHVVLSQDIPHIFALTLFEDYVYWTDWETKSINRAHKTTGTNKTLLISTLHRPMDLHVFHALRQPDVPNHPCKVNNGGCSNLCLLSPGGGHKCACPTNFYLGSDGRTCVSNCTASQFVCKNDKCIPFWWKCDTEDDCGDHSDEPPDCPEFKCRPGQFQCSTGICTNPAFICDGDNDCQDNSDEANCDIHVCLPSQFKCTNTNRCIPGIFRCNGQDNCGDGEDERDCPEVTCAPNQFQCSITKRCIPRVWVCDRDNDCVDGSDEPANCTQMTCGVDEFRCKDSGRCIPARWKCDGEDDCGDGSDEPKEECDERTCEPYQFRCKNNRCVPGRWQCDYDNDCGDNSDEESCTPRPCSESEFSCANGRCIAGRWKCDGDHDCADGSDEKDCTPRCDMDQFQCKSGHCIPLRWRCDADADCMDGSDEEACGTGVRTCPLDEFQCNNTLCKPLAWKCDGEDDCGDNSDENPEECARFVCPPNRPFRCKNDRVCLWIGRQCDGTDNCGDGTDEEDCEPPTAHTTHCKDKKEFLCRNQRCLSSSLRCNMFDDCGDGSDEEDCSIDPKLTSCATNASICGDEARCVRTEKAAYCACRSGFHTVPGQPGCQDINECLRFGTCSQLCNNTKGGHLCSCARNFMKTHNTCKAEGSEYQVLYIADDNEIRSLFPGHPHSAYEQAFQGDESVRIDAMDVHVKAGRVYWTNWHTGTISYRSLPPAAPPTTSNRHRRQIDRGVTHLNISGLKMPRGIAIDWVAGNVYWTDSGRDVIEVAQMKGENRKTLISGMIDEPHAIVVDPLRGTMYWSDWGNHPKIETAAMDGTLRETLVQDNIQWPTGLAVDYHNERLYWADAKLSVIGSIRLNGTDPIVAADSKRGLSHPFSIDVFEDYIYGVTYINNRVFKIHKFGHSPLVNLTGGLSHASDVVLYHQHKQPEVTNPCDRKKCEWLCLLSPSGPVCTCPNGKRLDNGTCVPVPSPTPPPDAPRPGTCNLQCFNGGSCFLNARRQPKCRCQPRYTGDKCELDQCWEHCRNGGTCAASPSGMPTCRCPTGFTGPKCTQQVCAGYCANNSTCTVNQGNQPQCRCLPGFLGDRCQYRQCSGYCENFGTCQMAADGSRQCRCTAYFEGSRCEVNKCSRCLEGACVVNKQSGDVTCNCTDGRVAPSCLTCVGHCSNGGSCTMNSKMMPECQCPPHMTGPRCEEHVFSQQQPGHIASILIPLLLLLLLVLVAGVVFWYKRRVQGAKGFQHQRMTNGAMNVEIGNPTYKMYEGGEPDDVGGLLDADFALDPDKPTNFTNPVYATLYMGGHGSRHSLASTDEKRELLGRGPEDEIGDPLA
T11 sequence (Q15365 whole entry): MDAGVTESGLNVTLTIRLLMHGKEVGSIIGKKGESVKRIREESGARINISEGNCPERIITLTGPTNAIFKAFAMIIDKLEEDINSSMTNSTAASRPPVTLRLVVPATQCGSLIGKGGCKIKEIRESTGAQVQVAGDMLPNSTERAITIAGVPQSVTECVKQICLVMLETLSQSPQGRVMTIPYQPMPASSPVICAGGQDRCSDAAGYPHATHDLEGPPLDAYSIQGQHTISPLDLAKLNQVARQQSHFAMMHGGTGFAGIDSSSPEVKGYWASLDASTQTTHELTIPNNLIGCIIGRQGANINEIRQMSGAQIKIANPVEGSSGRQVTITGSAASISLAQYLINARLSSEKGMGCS

B1: N-terminal FLAG tagged B3GNT2 (enzyme, human, UniProt Q9NY97 1-397, looked up)
chain: MSVGRRRIKLLGILMMANVFIYFIMEVSKSSSQEKNGKGEVIIPKEKFWKISTPPEAYWNREQEKLNRQYNPILSMLTNQTGEAGRLSNISHLNYCEPDLRVTSVVTGFNNLPDRFKDFLLYLRCRNYSLLIDQPDKCAKKPFLLLAIKSLTPHFARRQAIRESWGQESNAGNQTVVRVFLLGQTPPEDNHPDLSDMLKFESEKHQDILMWNYRDTFFNLSLKEVLFLRWVSTSCPDTEFVFKGDDDVFVNTHHILNYLNSLSKTKAKDLFIGDVIHNAGPHRDKKLKYYIPEVVYSGLYPPYAGGGGFLYSGHLALRLYHITDQVHLYPIDDVYTGMCLQKLGLVPEKHKGFRTFDIEEKNKNNICSYVDLMLVHSRKPQEMIDIWSQLQSAHLKC
notes: FLAG-tagged ORF overexpressed in cells; bait of the co-IP, pulled down with mouse anti-FLAG; also called N-FLAG B3GNT2; N-term FLAG; not shown: N-terminal FLAG tag
Q: Which results are given for B1?
A: co-IP mass spectrometry count [1]: 8; co-IP mass spectrometry count [2]: 8; co-IP mass spectrometry count [3]: 4; co-IP mass spectrometry count [4]: 11; co-IP mass spectrometry count [5]: 12; co-IP mass spectrometry count [6]: 9; co-IP mass spectrometry count [7]: 7; co-IP mass spectrometry count [8]: 4; co-IP mass spectrometry count [9]: 2; co-IP mass spectrometry count [10]: 0

B2: C-terminal FLAG tagged B3GNT2 (enzyme, human, UniProt Q9NY97 1-397, looked up)
chain: B1 chain
notes: Bait of the co-IP; pulled down from cell lysate with mouse anti-FLAG antibody; also called C-FLAG B3GNT2; C-term flag; not shown: C-terminal FLAG tag
Q: Which “co-IP mass spectrometry count” value [11] does the source give for B2 here?
A: Its value is 0.

Q: And the “co-IP mass spectrometry count” value [12]?
A: The value was 0.

Q: What about the “co-IP mass spectrometry count” value [13] of the same binder?
A: Its value is 0.

Q: And the “co-IP mass spectrometry count” value [14]?
A: Its value is 0.

B3: C-terminal FLAG tagged B3GNT2 (enzyme, human, UniProt Q9NY97 1-397, looked up)
chain: B1 chain
notes: FLAG-tagged ORF overexpressed in cells; bait of the co-IP, pulled down with mouse anti-FLAG; also called C-FLAG B3GNT2; C-term flag; not shown: C-terminal FLAG tag
Q: With B3 as the binder, how does the “co-IP mass spectrometry count” value [15] read?
A: The value was 0.

Q: What about the “co-IP mass spectrometry count” value [16] of the same binder?
A: The value was 3.

Q: What about the “co-IP mass spectrometry count” value [17] of the same binder?
A: Its value is 5.

Q: What about the “co-IP mass spectrometry count” value [18] of the same binder?
A: Its value is 8.

Q: What about the “co-IP mass spectrometry count” value [19] of the same binder?
A: The value was 0.

Q: What about the “co-IP mass spectrometry count” value [20] of the same binder?
A: Its value is 8.

Q: What about the “co-IP mass spectrometry count” value [21] of the same binder?
A: The value was 4.
